Drawing on the supplement of paper PMC12042874, this text covers amyloid nucleation score for 132 substances.

± gives the uncertainty stated by the source.

The nature of the data set: amyloid nucleation score (Sup35N fusion, yeast selection) (log enrichment); library NNK3; higher = more nucleation; inactive = no reads after selection. The gist of the method:
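The nucleation score is the DiMSum log enrichment of output over input reads, centred on the mode score of non-aggregating sequences. Only sequences with 100 or more input reads were scored, using Illumina sequencing of input and output plasmid inserts. Psi-negative yeast expressing Sup35N fused to peptides of 20 random codons were induced 24 hours with 100 μM copper sulfate and grown 7 days at 30°C on medium lacking adenine and uracil.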
For the substance MNFMLTLFLWGM, the amyloid nucleation score entry was “inactive”. Consider MNGIGNYLDTYMGSCHVEDM, for which the amyloid nucleation score entry is “inactive”.

Turning to MNRTFVIIVKNVASMIKDNR, the amyloid nucleation score was 2.1 ± 0.1.

Regarding MNVGAIGKSSFMY, the amyloid nucleation score result is “inactive”. Then MNWGYILLYVWDVSKNRYGF, with “inactive”; and MNWLSTTGECSILDISQ, with “inactive”. Turning to MPILLCLVHPPLYSSDPFQK, the amyloid nucleation score entry was “inactive”.

Take MPMCT: the amyloid nucleation score entry was “inactive”.

With MPSEILVSGIAGYAWAVSR, the amyloid nucleation score was -0.504 ± 1.9. As for MQFLRYSLPSDNRLPGCFL, the entry is “inactive”. Then MQMMGNEILRFFFVSVLNIN, with “inactive”; and MRARLFNRITYIGNECNVLS, with “inactive”; and MRCGKSL, with “inactive”. With MRDMIINMVSGETNGLCVKP, the amyloid nucleation score result is “inactive”.

The substance MRICFFDSIQHYQKNQD returned an amyloid nucleation score of 2.1 ± 0.071.

MRLCAGSCAVFMWNVLVMLG: the amyloid nucleation score entry is “inactive”.

In the case of MRLDRS, the amyloid nucleation score result is “inactive”. MRMVTPLSGRPRWYLHF: the amyloid nucleation score entry is “inactive”. In the case of MRNCEIISWKKAQVLSYNSS, the amyloid nucleation score entry is “inactive”.

In turn, MRNGCCNACKILLDIRLFL displayed an amyloid nucleation score of 1.96 ± 0.059. As for MRPITGVMVLNVSNRQITLF, the amyloid nucleation score turned out to be 1.72 ± 0.088. On to MRSNSTVYGTFTRSNVLHIP, for which the amyloid nucleation score result is “inactive”. On to MRSTNLACAGMHIN, for which the amyloid nucleation score result is “inactive”.

Consider MSCSASSSGKAWFGGSPTWW, for which the amyloid nucleation score is 0.674 ± 0.3.

Turning to MSENLDKLKTFPPALE, the amyloid nucleation score entry was “inactive”.

As to MSESTITLPWIAGIAWDEKL, the amyloid nucleation score entry is “inactive”.

Consider MSFVSSRGVNKWQVETGLLE, for which the amyloid nucleation score result was “inactive”. As for MSGALFMGLGTGRSRVTRNL, the entry is “inactive”; as for MSKHF, “inactive”; as for MSKWYYRWASYNCWFFDRPV, “inactive”.

For the substance MSMVFIVSCNDDIYTRAR, the amyloid nucleation score is 0.119 ± 0.24. Consider MSSFLTPAGRFSRYFTFVCF, for which the amyloid nucleation score result was “inactive”. As for MSSSIILWNFCNMDRCSLVG, the figure is 2.23 ± 0.087; as for MSVQGDHYFPT, “inactive”. MSWGGCNAVRKFFECRRRVQ yielded an amyloid nucleation score of 0.222 ± 0.5. Take MTCTTCACDDICSNKLVLFH: the amyloid nucleation score entry was “inactive”. As for MTFRFNVMLVCLWRATNCFL, the amyloid nucleation score result was “inactive”.

On to MVLCSKGIVNSARLAFKKSR, for which the amyloid nucleation score entry was “inactive”. On to MVNAWLNRYKMWNVFIALNR, for which the amyloid nucleation score entry was “inactive”. MVNMTI: the amyloid nucleation score result was “inactive”. As to MVQNLQNRYGSWSCKFGFQR, the amyloid nucleation score entry was “inactive”. Consider MVSLHYVI, for which the amyloid nucleation score entry is “inactive”. MVTLKQYLYSG gave an amyloid nucleation score of 1.05 ± 0.2. With MVVLRAVEQLGVRNNDYHS, the amyloid nucleation score result is “inactive”. Consider MVVRDDKIWIAFRCLYDCCV, for which the amyloid nucleation score result was “inactive”. Regarding MVVTKLRRDVISQSRISMGW, the amyloid nucleation score was 1.07 ± 0.1.

Consider MWLRFKDFVVRWN, for which the amyloid nucleation score entry was “inactive”.

The substance MWSHLVCCNRQPENLYG yielded an amyloid nucleation score of 1.32 ± 0.16. Then MWVGKHDVYTRDFM, with “inactive”; and MWVMGNDS, with “inactive”. In the case of MWVNATSSV, the amyloid nucleation score entry was “inactive”. For MWVSAYWYNTCRYRFLSV, the amyloid nucleation score entry was “inactive”.

Take MWWAINCWSSKFHIYSIDTY: the amyloid nucleation score result is “inactive”.

On to MYFEECGRCFNRSFNYGVNQ, for which the amyloid nucleation score result is “inactive”. As for MYLGGKALIRPFPVYATAAW, the entry is “inactive”. Consider MYLVG, for which the amyloid nucleation score result was “inactive”.

MYSNVDQFNI gave an amyloid nucleation score of -0.257 ± 0.47. For the substance MYVLLHTSQVL, the amyloid nucleation score result was “inactive”. In the case of MYVPIPVYFQF, the amyloid nucleation score entry was “inactive”. On to MYVSV, for which the amyloid nucleation score entry was “inactive”. As for MYVWLRCKLIGNSFLRVKCS, the entry is “inactive”. As for MYYRTRQELTSCPRNQNIL, the figure is -0.069 ± 0.85; as for NAALIVCLITFYVLGIFLAG, “inactive”.

Take NAHSHGYGSVPGR: the amyloid nucleation score result was “inactive”. In the case of NAQGVSKWEDTRSNLNRLVV, the amyloid nucleation score result was “inactive”. NCFMSLASSNTR: the amyloid nucleation score entry is “inactive”. On to NCKLFFSFGM, for which the amyloid nucleation score amounted to 1.49 ± 0.094.

NCLRLYQGSGKMFIIV: the amyloid nucleation score result is “inactive”.

NCLSPTCRSVL yielded an amyloid nucleation score of 2.07 ± 0.097. As for NCMFPGYLYNVDITLMDV, the amyloid nucleation score entry was “inactive”.

NCNVPRSHGGGFLTYTLMRE: the amyloid nucleation score entry was “inactive”. NCRSFCC had an amyloid nucleation score of 0.905 ± 0.094. In the case of NCVRFFYASDLSNYTRA, the amyloid nucleation score entry was “inactive”. Take NCYDSW: the amyloid nucleation score entry is “inactive”.

Turning to NDARAVGCTLRYKGLAIYSY, the amyloid nucleation score result is “inactive”. Turning to NDEMVY, the amyloid nucleation score entry is “inactive”. Consider NDGFMDVVNTSGSNLCMARN, for which the amyloid nucleation score entry was “inactive”. Consider NDHVRAFTDIFMCTMAIMND, for which the amyloid nucleation score entry was “inactive”. In the case of NDKLWQWMGNISVRCFFINV, the amyloid nucleation score entry is “inactive”. For the substance NECYYLGRNWPYYGKSDMLL, the amyloid nucleation score is 0.379 ± 0.27. Consider NELVLKYRSTVVLVKLW, for which the amyloid nucleation score entry was “inactive”. Then NETPVSDAESGVLDFTSHEL, with “inactive”; and NEVDDWFSD, with “inactive”. With NFAGMFVGLMPWHVCDTTCR, the amyloid nucleation score entry is “inactive”. As for NFCLMLDVWINTFRDIIYWG, the amyloid nucleation score result is “inactive”. Regarding NFLFMCSPYYLWIFDPGCYL, the amyloid nucleation score was found to be 2.8 ± 0.074.

In the case of NFLGAFRIPRLLRSLVALYL, the amyloid nucleation score result was “inactive”.

Regarding NFLVRTPGRNERG, the amyloid nucleation score result is “inactive”. Regarding NFMCFLVFHDLYEGQGYELR, the amyloid nucleation score turned out to be 2.3 ± 0.089. In turn, NFNYNQQLSVLLLVFGWTWR registered an amyloid nucleation score of 1.83 ± 0.075. Substance NFSCCLSCRQHMLAIFM yielded an amyloid nucleation score of 0.988 ± 0.13.

With NFWVIPQ, the amyloid nucleation score entry was “inactive”. In turn, NFYYSSAFLSVLFPFSACFP registered an amyloid nucleation score of 2.22 ± 0.084. Consider NGGIERLSWVRVWFRHTFQS, for which the amyloid nucleation score entry is “inactive”. Then NGKWKGWSS, with “inactive”; and NGMGKRGQRSEESISQRSTG, with “inactive”; and NGSSFCAKCVNVW, with -0.418 ± 0.98. Turning to NGVILYETSAWVTNVYSRFK, the amyloid nucleation score is 1.2 ± 0.18.

NHGATLFECSYCNCSLAFR came in with an amyloid nucleation score of 2.83 ± 0.081.

Regarding NHMLCCTCDFHYCVRGWKSF, the amyloid nucleation score came out at 0.64 ± 0.33. Turning to NIALFEILSSGIIVSNSNER, the amyloid nucleation score result is “inactive”. For the substance NIGNHYCRYNGWDMLNRGEL, the amyloid nucleation score result is “inactive”. For the substance NIGYSLWRHYTNSRG, the amyloid nucleation score result is “inactive”. NIISR had an amyloid nucleation score of -0.184 ± 0.81. In turn, NIPVSYYVVNGLIAEMLFIS had an amyloid nucleation score of 0.409 ± 0.27. Take NIVLFGKRVNFFYLTNDVVK: the amyloid nucleation score worked out at 1.97 ± 0.067. For the substance NKAIILHVM, the amyloid nucleation score result is “inactive”.

Turning to NKGLNL, the amyloid nucleation score result was “inactive”.

With NKGMPGPHGANSRYTGVDVG, the amyloid nucleation score entry was “inactive”. For the substance NKNHYFRVF, the amyloid nucleation score result was “inactive”. Take NKNQIDQASSWFPR: the amyloid nucleation score result was “inactive”. Consider NLADAVEENGGYFHFTFPKF, for which the amyloid nucleation score entry is “inactive”.

Turning to NLAFP, the amyloid nucleation score result was “inactive”. Take NLCIWPVTDAHLSLMHYLTP: the amyloid nucleation score result was “inactive”.

Turning to NLFDGTN, the amyloid nucleation score result was “inactive”.

In the case of NLHAEWMDGSTGRKIAWNNG, the amyloid nucleation score entry was “inactive”. For NLKRTQLFLHLFRMGCFHT, the amyloid nucleation score entry is “inactive”. As to NLLDYTVIVNSLSFVDSKSS, the amyloid nucleation score entry was “inactive”.

As for NLLNSFIFSRLRRVEGGMFG, the amyloid nucleation score entry is “inactive”. NLLVLTDSVYIPLSHPYPNR registered an amyloid nucleation score of 0.493 ± 0.22.

NLNGLMRLQIAVLFQ registered an amyloid nucleation score of 0.577 ± 0.21. Then NLQLESFYWFGPRGVRKHLE, with “inactive”; and NLRFVTREWCKTYQLI, with “inactive”; and NLRSLFKPWPVVPAYMRFME, with “inactive”. As for NLSHDCPPGPAKARYYRNVK, the entry is “inactive”. For NLSVIMLVVCMLTINNIYMS, the amyloid nucleation score stood at 1.29 ± 0.11.

Regarding NLVTVLIISRWGAGLR, the amyloid nucleation score came to 1.17 ± 0.17. Take NLVWICFFNGRNYLSMRDRA: the amyloid nucleation score stood at 1.34 ± 0.15.

NMLVCITSDGLYFYCCGANS yielded an amyloid nucleation score of 1.5 ± 0.11. Consider NMPYSCKRLWRDKCQMWEYR, for which the amyloid nucleation score result is “inactive”. In turn, NMRTCSIGSKPIVKFTYMCG returned an amyloid nucleation score of 1.31 ± 0.15. Take NMRYKHAWNLEVVVLKVHVY: the amyloid nucleation score result is “inactive”.
